In experiment [1] the target is T1, human fusion protein hOX40-HIS (human, UniProt P43489 29-216, limits assumed).
T1 construct: it looks like the extracellular region; also called hOX40-HIS antigen; human OX40 antigen
T1 sequence: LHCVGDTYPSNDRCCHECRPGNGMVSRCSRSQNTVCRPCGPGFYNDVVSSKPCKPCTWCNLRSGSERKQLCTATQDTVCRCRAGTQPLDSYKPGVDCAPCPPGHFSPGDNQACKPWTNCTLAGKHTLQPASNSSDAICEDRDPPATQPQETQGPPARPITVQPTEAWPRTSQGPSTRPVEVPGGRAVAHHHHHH
As to the kind of experiment: ELISA, coated hOX40-HIS 0.6 ug/ml. Here is the method:
(§1) 3) addition of the primary antibody: preparing the four antibodies to a concentration of 2 μg/ml, and diluting 1:5 from the 2 μg/ml as the starting concentration to 7 gradient concentrations (that is, the concentrations of 2μg/ml, 400 ng/ml, 80 ng/ml, 16 ng/ml, 3.2 ng/ml, 0.64 ng/ml, 0.128 ng/ml, respectively). The prepared primary antibodies were added individually, and incubated at 30° C. for 1 hour; PBS was used as the blank control group;
The ELISA test results are shown in Table 1, in which, the EC₅₀ value represents the half-maximal effect concentration, that is, the concentration that can cause 50% of the maximum effect.
In general terms: In an ELISA, binding on a coated surface is turned into a signal by an enzyme label.

Experiment [2] has as its target T2, hOX40 protein on the cell membrane surface (293T-OX40 stably transfected cells) (human, UniProt P43489 29-277).
T2 construct: whole, on cells; also called hOX40 on the surface of the cell membrane; 293T cells expressing hOX40
T2 sequence (looked up): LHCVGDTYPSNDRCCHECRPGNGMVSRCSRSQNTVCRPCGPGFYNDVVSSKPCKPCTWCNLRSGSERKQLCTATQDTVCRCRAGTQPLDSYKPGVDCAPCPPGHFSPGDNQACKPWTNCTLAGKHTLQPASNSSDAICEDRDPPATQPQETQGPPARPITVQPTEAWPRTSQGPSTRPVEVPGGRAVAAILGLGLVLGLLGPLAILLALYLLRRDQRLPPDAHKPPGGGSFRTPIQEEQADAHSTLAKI
As to the kind of experiment: flow cytometry on 293T-OX40 cells. As for the experimental part: In this experiment, 293T-OX40 stably transfected cell lines were used as the experimental cells, and the FACS method was used to detect the binding of 9C12 to the hOX40 protein on the cell membrane surface. The specific procedure is as follows:
293T cells expressing hOX40 were digested, and prepared to a final concentration of 10⁶ cells/ml. 100 μl of cell suspension from each group was added into a 1.5 ml EP tube. Various concentrations of 9C12 antibody (10000 ng/ml, 4000 ng/ml, 2000 ng/ml, 1000 ng/ml, 500 ng/ml, 200 ng/ml, 20 ng/ml, 2 ng/ml) were added, and incubated on ice for 1 hour. After 1 hour, the tube was washed with HBSS once. Each group was added with prepared APC goat anti-human IgG secondary antibody, incubated on ice for 20 minutes in the dark, washed once with HBSS, and finally suspended with 200 μl of HBSS, and the cells were tested.
On the technique in general: In flow cytometry, cells or beads pass a laser one at a time.

Experiment [3] deals with T1, human fusion protein hOX40-HIS. In words: ELISA, coated human OX40-HIS 0.25 ug/ml. Here is the method:
(§2) Human OX40 antigen, monkey OX40 antigen and murine OX40 antigen were used for coating respectively to detect whether OX40 antibody cross-reacts with OX40 protein of different species, through the following steps:
(§3) 3) addition of the primary antibody: preparing antibody 9C12 to a concentration of 2 μg/ml, and diluting 1:5 from the 2 μg/ml as the starting concentration to […] 7 gradient concentrations (that is, the concentrations of 2 μg/ml, 400 ng/ml, 80 ng/ml, 16 ng/ml, 3.2 ng/ml, 0.64 ng/ml, 0.128 ng/ml, respectively). PBS was used as the blank control group. The prepared primary antibodies were added individually, and incubated at 30° C. for 1 hour;

Experiment [4] deals with T3, murine OX40 antigen (murine, UniProt P47741 20-211, limits assumed).
T3 sequence (looked up): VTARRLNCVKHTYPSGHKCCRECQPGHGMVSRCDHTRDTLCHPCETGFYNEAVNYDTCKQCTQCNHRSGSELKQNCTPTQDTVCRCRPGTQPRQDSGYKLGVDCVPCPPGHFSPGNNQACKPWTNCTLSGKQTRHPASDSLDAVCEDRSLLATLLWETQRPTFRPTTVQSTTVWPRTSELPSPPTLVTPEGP
As to the kind of experiment: ELISA, coated murine OX40 antigen 0.25 ug/ml. As for the experimental part: as §2, §3

In experiment [5] the target is T4, monkey OX40 antigen (monkey).
T4 construct: also called Monkey OX40-HIS antigen
In words: ELISA, coated monkey OX40-HIS 0.25 ug/ml. Here is the method: as §2, §3

Experiment [6] deals with T1, human fusion protein hOX40-HIS. As to the kind of experiment: ELISA, coated hOX40-HIS; antibody 16 ng/ml; well 1. Here is the method:
(§4) For the hybridoma antibodies prepared in Example 1, the specific binding of different antibodies to hOX40 was detected by the following steps:
as §1

For experiment [7] the target is unchanged. As to the kind of experiment: ELISA, coated hOX40-HIS; antibody 16 ng/ml; well 2. As for the experimental part:
as §4, §1

Experiment [8] has the same target. As to the kind of experiment: ELISA, coated hOX40-HIS; antibody 80 ng/ml; well 1. As for the experimental part:
as §4, §1

Experiment [9] shares this target. As to the kind of experiment: ELISA, coated hOX40-HIS; antibody 80 ng/ml; well 2. As for the experimental part: as §4, §1
For experiment [10] the target is unchanged. In words: ELISA, coated hOX40-HIS; antibody 3.2 ng/ml; well 1. Here is the method: as §4, §1
Experiment [11] shares this target. As to the kind of experiment: ELISA, coated hOX40-HIS; antibody 3.2 ng/ml; well 2. Here is the method: as §4, §1
Experiment [12] has the same target. As to the kind of experiment: ELISA, coated hOX40-HIS; antibody 400 ng/ml; well 1. Here is the method:
as §4, §1

The target is the same in experiment [13]. As to the kind of experiment: ELISA, coated hOX40-HIS; antibody 400 ng/ml; well 2. As for the experimental part: as §4, §1
Experiment [14] shares this target. As to the kind of experiment: ELISA, coated hOX40-HIS; antibody 0.64 ng/ml; well 1. Here is the method: as §4, §1
For experiment [15] the target is unchanged. In words: ELISA, coated hOX40-HIS; antibody 0.64 ng/ml; well 2. Here is the method: as §4, §1
The target is the same in experiment [16]. In words: ELISA, coated hOX40-HIS; antibody 2000 ng/ml; well 1. Here is the method:
as §4, §1

Experiment [17] shares this target. As to the kind of experiment: ELISA, coated hOX40-HIS; antibody 2000 ng/ml; well 2. As for the experimental part: as §4, §1
Experiment [18] shares this target. In words: ELISA, coated hOX40-HIS; antibody 0.128 ng/ml; well 1. Here is the method:
as §4, §1

Experiment [19] has the same target. As to the kind of experiment: ELISA, coated hOX40-HIS; antibody 0.128 ng/ml; well 2. Here is the method:
as §4, §1

Experiment [20] shares this target. In words: SPR, ProteOn XPR, hOX40-HIS immobilized on GLM chip, antibody as analyte. As for the experimental part: The ProteOn XPR molecular interaction instrument may be used to detect the kinetics and affinity constants of the interaction between different drugs and a variety of different target proteins. 250 nM hOX40-HIS antigen ([…] hOX40 antigen) was immobilized on the surface of the GLM chip, and after equilibrating in PBST, was allowed to bind to the antibody 9C12 diluted twice in PBST to the concentration of 50, 25, 12.5, 6.25, 3.125, 0 nM, respectively, and then dissociated in PBST.
(In general: SPR reads the build-up and loss of mass on a sensor chip optically.)

As usually defined, the EC50 is the midpoint of the concentration-response curve. In general, Kd refers to a measure of binding affinity in units of concentration. A word on the koff: it is a measure of how fast the partners let go of each other. Broadly, the kon is a measure of how fast the partners come together.

B1: antibody 9C12 (antibody, V domains shown)
VH: QVQLQQSGGGLVKPGGSLKLSCAASGFTFSDYYMYWVRQTPEKRLEWVATISDGGSNTYYPDSVKGRFTISRDNAKNNLYLQMSSLKSEDTATYYCARRGTGTGFGYWGQGTLVTVSA
VL: DIVLTQTTASLSVSVGETVTITCRASENIYSTLAWYQQKQGKSPQLLVYAATNLVAGVPSRFSGSGSGTQYSLKINSLQSEDFGSYYCQHFWGIPWTFGGGTKLEIK
notes: Purified mouse hybridoma antibody; also called 9C12 antibody; 9C12 Ab
Regarding B1, the EC50 came out at 0.017 nM in [1], 2.84 nM in experiment [2], 0.012 nM in [3] and 0.01 nM in [5]. Also, the binding result in [4] is “no binding (tested: 2000 ng/ml)”. In addition, the “absorbance at 450 nm” value in experiment [6] is 2.4; in experiment [7] it was 2.25; in [8], 2.59; in experiment [9] it was 2.51; in experiment [10], 1.58; in [11], 1.51. Also, the “absorbance at 450 nm” value in [12] worked out at 2.59; in [13], 2.52; in [14] it was 0.464; in experiment [15], 0.464; in experiment [16] it was 2.72; in experiment [17] it was 2.68. For the same molecule, the “absorbance at 450 nm” value in experiment [18] is 0.147; in [19] it was 0.138. Moreover, the Kd in experiment [20] turned out to be 0.151 nM. Also, the koff in experiment [20] amounted to 6.73e-05 s⁻¹. Further, the kon in experiment [20] was found to be 445000 M⁻¹ s⁻¹.

B2: antibody 1D9 (antibody, V domains shown)
VH: EVQLQQSGPELVKPGALVKISCKASGYTFTNYDINWVKQRPGQGLEWIGWIYPEDGSTKYNEKFKGKATLTADKSSSTAYMQLSSLTSENSAVYFCARDTRGYFDYWGQGTTLTVSS
VL: DIVMTQTTAIMSASLGEKVTMSCRASSSVNYIYWYQQKSDASPKLWIYYTSNLAPGVPARFSGSGSGNSYSLTISSMEGEDAATYYCQQFTSSPWTFGGGTKLEFKR
notes: Purified mouse hybridoma antibody; also called 1D9 antibody; 1D9 Ab
B2: it took 10.8 nM to reach a half-maximal effect in experiment [1] (EC50). For the same molecule, the “absorbance at 450 nm” value in experiment [6] is 0.104; in experiment [7] it was 0.123; in experiment [8], 0.316; in experiment [9], 0.287; in experiment [10] it was 0.061; in experiment [11], 0.066. Besides, the “absorbance at 450 nm” value in experiment [12] came to 1.11; in [13], 1.12; in [14] it was 0.051; in [15] it was 0.053; in [16], 2.95; in experiment [17] it was 3.08. Besides, the results for the “absorbance at 450 nm” value in experiment [18] and in experiment [19] were 0.053 and 0.052, respectively.

B3: antibody 8A7 (antibody, V domains shown)
VH: QVQLQESGPSHVKPSQTLSLTCSVTGDSITSGYWNWIRKFPGNKLEYLGYISFSGNTYYNPSLKSRISIIRDTSKNQYYLQLNSVTTEDTATYYCARYPYSYSNWDYAMDYWGQGTSVTVSS
VL: DIVMTQSPSSLVVSVGEKVTMSCKSSQFLLYSSSQKNYLAWYQQKPGQSPQLLIYWASTRESGVPDRFTGSGSGTDFTLTISSVKAEDLAVYYCHQYYSYPLTFGAGTKLELK
notes: Purified mouse hybridoma antibody; also called 8A7 antibody; 8A7 Ab
B3: in experiment [1], the EC50 worked out at 0.727 nM. Moreover, the “absorbance at 450 nm” value in [6] worked out at 0.272; in experiment [7], 0.288; in experiment [8], 0.894; in experiment [9] it was 0.87; in experiment [10], 0.096; in experiment [11], 0.094. Also, the “absorbance at 450 nm” value in experiment [12] was determined as 1.64; in [13] it was 1.66; in [14], 0.059; in [15], 0.058; in [16], 1.93; in [17], 1.98. Further, the figures for the “absorbance at 450 nm” value in experiment [18] and in [19] were 0.05 and 0.056, respectively. In experiment [20], this molecule displayed a Kd of 20.8 nM. Besides, the koff in experiment [20] is 0.000567 s⁻¹. Further, the kon in [20] came to 27300 M⁻¹ s⁻¹.

Values taken from patent US20220017632A1 (HANX BIOPHARMACEUTICS, published 2022).
